According to PMC5430920 (Scientific Reports, 2017):

Biological target: the molecule itself
Assay: SEC

B1: Mycobacterium tuberculosis orotate phosphoribosyltransferase (enzyme)
chain: MAGPDRAELAELVRRLSVVHGRVTLSSGREADYYVDLRRATLHHRASALIGRLMRELTADWDYSVVGGLTLGADPVATAIMHAPGRPIDAFVVRKSAKAHGMQRLIEGSEVTGQRVLVVEDTSTTGNSALTAVHAVQDVGGEVVGVATVVDRATGAAEAIEAEGLRYRSVLGLADLGLD
notes: also called MtOPRT; M. tuberculosis OPRTase
  stoichiometry N: 2
